# Data reported in the supplement of paper PMC9170038.
# System: MS2 coat protein
# Experiment: apparent KD of MS2 coat protein; higher = weaker reporter binding
# Settings: Eterna round: R107; input ligand: theophylline 20 uM
# Experimental: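 RNA-MaP round R107: designed RNA switches with theophylline, tryptophan, arginine or FMN aptamers are transcribed on-chip within common flanks. They are titrated with SNAP-549-labelled MS2 coat protein in RNA-MaP buffer (100 mM Tris pH 7.5, 80 mM KCl, 4 mM MgCl2), without ligand or with the indicated ligand. Median apparent KD per design.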
row,Sequence,apparent KD of MS2 coat protein [nM]
1,GAACAUGAGGAUCACCCAUGUAAAACAGAUACCAGUGAUAUAAUACACCCUUGGCAGCUGUAGCUGAAUAAUAAUUCCCUCAAGC [#19 SameState-TheophyllineA],21.8
2,UACAUGAGGAUCACCCAUGUAUGAAUGGAUACCAGCGACAAUGGGCGCCCUUGGCAGCUAGUGGAUGAAGGGUGGGUACAAUACU [Exclusion Theophyline A GF4],17.7
3,GGGUGGUAGGCGGCCGCCACUGAUUUUCAUUUAUAGAUGACAUGAGGAUCACCCAUGUUUAUGUGCAGGACCGGGCCUGUUGUGG [aaaS],74.2
4,UGUAUGUGAUUUGAUACCAGACCAGCUGGUGGUACUUGAGGAUCACCCAGGUAGGUUUGGGUCCCUUGGCAGCAAAUCGCAUACU [SS Theo B #24 Ms12],731
5,AGCAUACAUUCUGAUACCAGAGACAUGAGGAUCACCCAUGUCCGAUCGUCCUGCCUCAGACUCCCUUGGCAGCAGGAUGUGUGCU [Exclusion Theophylline B GF6],17.6
6,AAAACAUGAGGAUCACCCAUGUGGUGAGAAGGAGCGUCGGAAAUGACAGGUAGGUCGCUUAUCCGUAAGUAUUAGUGUUAGUACA [SSArg A #1],290
7,CCUCAUGUGUAUCACCACAUGAGUGGUGAUACCAGCAUCGAAAGAUGCCCUUGGCAGCACCAACAUGAGGAUCACCCAUGUAAUA [(M)'-(T)'-(M)''-(T1)-(T2)-(M1)-(M2)_Design2],284
8,ACCUGUACGAAAAGUGCAGGACACGGAAUACGAGGACCGGUACGGCCGCCACUCGGAAUAAACCUGAGGAUCACCCUGGUCCGUG [TrypAS 9 #AlternativeMS2 #Zipper #StaticStem],39.1
9,UAAAACAUGAGGAUCACCCAUGUAUUUGAUACCAGAGUGAUGAUCCUCCCUUGGCAGCAAAUAACGCAUUGAUUACAAUGCGAAA [Mat - Same State Theophlline A - Mod of Eli - D28],121
10,AGACACAUGAGGAUCACCCAUGUACACGAGCGAGGACCGGUACGGCCGCCACUCGUCCAAGCAACUAAUGAGACUCGUAAGAUGG [theeternabot_sameState_MS2_Trp_A_5],31.6
11,ACAUGAGGAUCACCCAUGUUCCUCAUUGAUACCAGUGAAUUUAGACGCCCUUGGCAGCGAGUUUUUGAAGAAGAAGUUUUUUUUU [6.D],731
12,AGGUGCUGAUCGGCCGCCACUGAGAGGACGUGAACUUUAGCUGGUUACAUGAGGAUCACCCAUGUCAGGACCGGGAUUAGUUUGC [Quleorla],17.4
13,UCGUGUAUAUCGGAUACCAGUGAGAACGAUACAUGAGGAUCACCCAUGUGAGUUGAUGUACACCCUUGGCAGCUGUAUAUAUCUA [gghullin],27
14,AUAAGUAAUGUCUCGUGUAUUAUUACAGAUACCAGACUAUCCUAUGUCCCUUGGCAGCUGGAUUACAUGAGGAUCACCCAUGUGG [#11 Exclusion-TheophyllineA],49.5
15,GUUUUAUACUCGGCCGCCACUGAGAGAGUCAUGUAAACAUGAGGAUCACCCAUGUAAUAUAUAUACAGGACCGGGAGUAGGGUAA [4.F],16.1
16,AACAUGAGGAUCACCCAUGUCUGAACUGAAGGAGCGCUAAAUAAGGCAGGUAGGUCGCGGAAUUUUAUAUAUAUAUAUAUAUAGG [9.D],31.9
17,GUUGGACUUUCGGCCGCCACUGAGAGAGUCGUGUGAACAUGAGGAUCACCCAUGUAAUAUAUAUACAGGACCGGGAGGGUUGUAA [4.N],22.2
18,GGACUAACCUGAAGGAGCGGCACGCAGAAACUGCAAAUUCCUCCACACGAGGAUCACCCGUGUCAGGUAGGUCGCAGGUUAGUCG [ArgBX 28],23.3
19,AGAGUCAGACAAAAGUCUGGCUCAGCCGAAGGAGCGUCCGAAAGGACAGGUAGGUCGCGGUUACAUGAGGAUCACCCAUGUUCCU [ArgAS 7 #OpenEnded],177

# Same assay, conditions: Eterna round: R107; input ligand: theophylline 2 mM
row,Sequence,apparent KD of MS2 coat protein [nM]
1,GGAUGAAACUGAAGGAGCGAGAUCACAAGAAUGGGUCAAACAUGAGGAUCACCCAUGUAAUCUCAGGUAGGUCGCAGUGUCCCUU [Exclusion Arginine B GF 11],55.1
2,CUUCAGGGUGCGGCCGCCACUUAUUAGGUGCUUGCGACGCCAGCACAUGAGGAUCACCCAUGUUCAAGGACCGGGCACCACCUUU [theeternabot_sameState_MS2_Trp_B_21],15.1
3,AACGUAUACAGAAGGAGCGUGAAUUAUAUUACUCAUUCAUAUACAUGAGGAUCACCCAUGUCACAGGUAGGUCGCUGUAUUCGUA [JR_ExcArginiB_Sub020],86.9
4,GGGCGCUAUCCCGCGAGGGAUAGCGUUCGUCGAGGACCGGUACGGCCGCCACUCGAACGAGUGGUGACAUGAGGAUCACCCAUGU [Oaa],55.7
5,GCGUUCUCUGCGGCCGCCACUCAAGGAGCUACAUAGCUCCUAGACAUGAGGAUCACCCAUGUGGCGAGGACCGGGUAGAUCCUUA [Same State Typptophan B GF7],337
6,UUGUUGUUUGGAAGGAGCGUGGAUGAGUUAGAACAUGAGGAUCACCCAUGUUGGAUGAUACCGCAGGUAGGUCGCCGGGUGGUGG [11.aA],40
7,GCUAGUGGCAGAAGGAGCGGCAUACAUGCAAGUGACAUGAGGAUCACCCAUGUAAGGGAAUGCCAGGUAGGUCGCUGCCACUAGC [EAB NP+V+V2 #2 +-Same Structure],89.2
8,UAAUAAGUACCGGUCCUCAGAUCCUCAUGACGAGGACCGGUACGGCCGCCACUCGAAACAUGAGGAUCACCCAUGUAAUAAUAAU [|T'-M'-Trp-Ms2|_Design 1],36.9
9,CCUCACAUGAGGAUCACCCAUGUCUUUACACGAGGACCGGUACGGCCGCCACUCGUUCACAAAACAACCAGAAGUGAUGCCUACA [theeternabot_sameState_MS2_Trp_A_14],214
10,AGCGGCUCGAAAGAGUCGCACUCAUGUGAAGGAGCGCGCGUAAGCGCAGGUAGGUCGCACAUGAGGAUCACCCAUGUACCUUCUA [MAT - Exclusion Arginine A - Mod of Eli - D21],262
11,UAACAUGAGGAUCACCCAUGUUUGAAGAAACGAGGACCGGUACGGCCGCCACUCGACGAGUGGAUGAAUAGUGGGCUUGUGUGCU [Same State Trp A GF10],13.1
12,GGACUAACCUGAAGGAGCGACACGCAGAAACUGCAAAUUCCUCCACACGAGGAUCACCCGUGUCAGGUAGGUCGCAGGUUAGUCG [ArgBX 28],21.6
13,GCGUUCUCUGCGGCCGCCACUCAAGGAGCUACAUAGCUCCUAGACAUGAGGAUCACCCAUGUCGCGAGGACCGGGUAGAUCCUUA [Same State Typptophan B GF8],360
14,AACAUGAGGAUCACCCAUGUCCCAUGUGAACGAGGACCGGUACGGCCGCCACUCGACCGAGGCGGCACAUGAGGAUCACCCACAU [whbob_SS_trypto A_2s13],370
15,UACAUGAGGAUCACCCAUGUAUGAAUGGAUACCAGCGACAAUGGGCGCCCUUGGCAGCUAGUGGAUGAAGGGUGGGUACAAUACU [Exclusion Theophyline A GF4],13.1
16,GGGUGGUAGGCGGCCGCCACUGAUUUUCAUUUAUAGAUGACAUGAGGAUCACCCAUGUUUAUGUGCAGGACCGGGCCUGUUGUGG [aaaS],113
17,UGUAUGUGAUUUGAUACCAGACCAGCUGGUGGUACUUGAGGAUCACCCAGGUAGGUUUGGGUCCCUUGGCAGCAAAUCGCAUACU [SS Theo B #24 Ms12],408
